Target: Mycobacterium thermoresistibile (Mth) Class Ib ribonucleotide reductase catalytic α-subunit (NrdE), purified alone (M. thermoresistibile)
Assay: SEC-MALS

Substance: Mycobacterium thermoresistibile (Mth) Class Ib ribonucleotide reductase catalytic α-subunit (NrdE), purified alone (enzyme)
- stoichiometry N: 2

Reference: publication doi:10.64898/2025.12.21.695763
